Experimental data published in US7038020 (ZLB BIOPLASMA, dated 2006).

Assays:
[1] = target: T1, Rhesus D antigen (human, UniProt Q02161 2-417); test: haemagglutination, rbc
T1 construct: whole, on cells; R1R1 cells also carry C and e; also called RhD; on rbc R1R1 (CDe/CDe, CCDDee)
T1 sequence (looked up): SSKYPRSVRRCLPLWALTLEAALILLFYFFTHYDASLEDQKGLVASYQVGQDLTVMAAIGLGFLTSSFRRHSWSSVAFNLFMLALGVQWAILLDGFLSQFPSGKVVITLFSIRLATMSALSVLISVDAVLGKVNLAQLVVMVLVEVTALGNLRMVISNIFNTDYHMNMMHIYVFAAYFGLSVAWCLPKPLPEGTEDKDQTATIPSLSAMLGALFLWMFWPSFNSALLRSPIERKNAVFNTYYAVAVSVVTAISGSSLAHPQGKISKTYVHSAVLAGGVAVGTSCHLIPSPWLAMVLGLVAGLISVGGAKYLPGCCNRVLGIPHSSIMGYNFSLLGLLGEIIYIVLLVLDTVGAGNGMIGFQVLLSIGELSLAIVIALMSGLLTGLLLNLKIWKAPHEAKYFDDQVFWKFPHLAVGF

[2] = target: T1, Rhesus D antigen; test: indirect haemagglutination, Fab fragment, rbc R1R1
[3] = target: T2, Rhesus negative rbc, phenotype ccddee (Rhesus c and e antigens, no D) (human, UniProt P18577 2-417); test: indirect haemagglutination, Fab fragment, rbc rr
T2 construct: whole, on cells; the thing tested is the whole red cell; also called rr
T2 sequence (looked up): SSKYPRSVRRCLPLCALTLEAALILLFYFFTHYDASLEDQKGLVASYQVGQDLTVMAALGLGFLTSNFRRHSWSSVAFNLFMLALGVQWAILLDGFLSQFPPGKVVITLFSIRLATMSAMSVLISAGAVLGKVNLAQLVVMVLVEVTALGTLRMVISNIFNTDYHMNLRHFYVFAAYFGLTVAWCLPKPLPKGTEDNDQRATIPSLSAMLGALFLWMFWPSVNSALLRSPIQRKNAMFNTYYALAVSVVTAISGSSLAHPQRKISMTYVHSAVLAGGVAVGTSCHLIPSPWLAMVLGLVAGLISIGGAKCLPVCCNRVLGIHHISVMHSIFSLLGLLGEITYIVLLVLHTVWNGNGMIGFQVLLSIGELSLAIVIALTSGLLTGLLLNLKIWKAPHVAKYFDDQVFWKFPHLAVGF

[4] = target: T2, Rhesus negative rbc, phenotype ccddee …; test: indirect haemagglutination, rbc ccddee
[5] = target: T1, Rhesus D antigen; test: indirect haemagglutination, rbc CCDDee

| Binder | binding result [1] | other results |
| --- | --- | --- |
| Fab clone LD1-40 (Fab, V domains shown, human soluble Fab from pComb3 in E. coli) VH: QVKLLESGGGVVQPGRSLRLSCIASGFTLRNYAMHWVRQAPGKGLEWVAGIWFDGSNKNYADSVKGRFTISRDNSKNTLYLQLNSLRDEDTAVYYCARERAARGISRFYYYMDVWGKGTTVTVSP VL: VMTQSPSSLSASVGDRVTITCRASQSIRSHLNWYQQKPGKAPKLLIYGASTLQSGVPSRFSGSGSGAVFTLTIASLQPEDFATYYCQESYSNPLITFGQGTRLETK | binds | – |
| Fab clone LD2-11 (Fab, V domains shown, human soluble Fab from pComb3 in E. coli) VH: QVKLLESGGGVVQPGGSLRLSCEASGFTLRSSGMHWVRQAPGKGLEWVALIWFDGSIRSYAESVKGRFTISRDTSKNTLYLQMRSLSADDTAVYYCARDKAVRGISRYNYYMDVWGKGTTVTVSS VL: VLTQSPSSLSASIRDRVTITCRASQNIGSYLNWYQHKPGTAPKLLIYAVSALQSGVPSRFSGSRSGTDFTLTISSLQPEDFATYYCQQSYSPPYTFGQGTNLQIK | binds | – |
| Fab clone LD2-17 (Fab, V domains shown, human soluble Fab from pComb3 in E. coli) VH: QVKLLESGGGVVQPGGSLRLSCVASGFTFRSYGMHWVRQAPGKGLEWVAFIWFDGSNKGYVDSVKGRFTISRDNSKNTLYLQMKSLRAEDTAVYYCAREKALRGISRYNYYLDVWGKGTTVTVSS VL: VMTQSPFSLSASVGDRVTITCRASQNIRSFLSWYQQKPGTAPKLLIYAASRLQSGVPSRFSGSGSGTDFTLTISTLQPEDFATYYCQQSYSAPWTFGQGTKLEIK | binds | – |
| Fab clone LD2-20 (Fab, V domains shown, human soluble Fab from pComb3 in E. coli) VH: QVKLLESGGGVVQPGGSLRLSCVASGFTSRSYGMHWVRQAPGKGLEWVAFIWFDGSNKGYVDSVKGRFTISRDNSKNTLYLQMKSLRAEDTAVYYCAREKALRGISRYNYYLDVWGKGTTVTVSS VL: not shown | binds | – |
| Fab clone LD2-14 (Fab, V domains shown, human soluble Fab from pComb3 in E. coli) VH: QVKLLESGGGVVQPGGSLRVACVASGFTFRNFGMHWVRQAPGKGLEWVAFIWFDASNKGYGDSVKGRFTVSRDNSKNTLYLQMNGLRAEDTAVYYCAREKAVRGISRYNYYMDVWGKGTTVTVSS VL: VMTQSPSSLSASVGDRVTITCRASQSIINNLNWYQQKPGKAPELLIYAASSLQSGVPSRFRGSGSGRDFTLTVTSLQPEDFATYYCQQSYSTLWTFGQGTKVEIK | – | binding result [2]: binds; binding result [3]: no binding |
| Fab clone LD1-52 (Fab, V domains shown, human soluble Fab from pComb3 in E. coli) VH: QVKLLESGGGVVQPGGSLRLSCEASGFALRSSGMHWVRQAPGKGLEWVALIWFDGSIRSYAESVKGRFTISRDTSKNTLYLQMRSLSADDTAVYYCARDKAVRGISRYNYYMDVWGKGTTVTVSS VL: VMTQSPSSLSASVGDRVTITCRASQNIIRYLNWYQQKPGKAPRLLIYGASTLQSGVPSRFSGSGSGTDFTLTISSLQPEDFATYYCQQSYRTPPFTFGPGTKVEIK | binds | – |
| Fab clone LD1-84 (Fab, V domains shown, human soluble Fab from pComb3 in E. coli) VH: QVKLLESGGGVVQPGGSLRLSCEASGFTLRSSGMHWVRQAPGKGLEWVALIWFDGSIRSYAESVKGRFTISRDTSKNTLYLQMRSLSADDTAVYYCARDKAVRGISRYNYYMDVWGKGTTVTVSS VL: VMTQSPSSLSASIGDRVTITCRASQSIIRYLNWYQHKPGKAPKLLIFAASNLQTGVPSRFSGSGSGTDFTLTISDLQPEDFATYYCQQSYSRPFTFGRGTSLDIK | binds | – |
| Fab clone LD1-110 (Fab, V domains shown, human soluble Fab from pComb3 in E. coli) VH: QVKLLESGGGVVQPGRSLRLSCIASGFTLRNYAMHWVRQAPGKGLEWVAGIWFDGSNKNYADSVKGRFTISRDNSKNTLFLHMNSLRAEDTATYYCARERAIRGISRYNYYMDVWGKGTTVTVSS VL: VMTQSPSSLSASVGDRVTITCRASQSIRSSLNWYQQKPGKAPKVLIYAASSLQSGVPSRFSGRGSGTDFTLTISSLQPEDFATYYCQQSSSSSWTFGQGTKVEIK | binds | – |
| Fab clone LD1-117 (Fab, V domains shown, human soluble Fab from pComb3 in E. coli) VH: QVKLLESGGGVVQPGKSLRLSCAASGFSFNSHGMHWVRQAPGKGLEWVAFIWFDGSNKYYADSVKGRFTITRDNSKNTLYLQMNSLRAEDTAVYYCARETSVRLGYSRYNYYMDVWGKGTTVTISS VL: VMTQSPSSLSASVGDRVTITCRASQSIRSHLNWYQQKPGKAPKLLIYAASSLQGGVPSRFSGSGSGTDFTLTISSLQPEDFATYYCQQSYRAPQWTFGQGTKVEIK | binds | – |
| Fab clone LD1/2-6-3 (Fab, V domains shown) VH: QVKLLESGGGVVQPGGSLRVACVASGFTFRNFGMHWVRQAPGKGLEWVAFIWFDASNKGYGDSVKGRFTVSRDNSKNTLYLQMNGLRAEDTAVYYCAREKAVRGISRYNYYMDVWGKGTTVTVSS VL: VMTQSPSSLSASVGDRVTITCRASQSIIRYLNWYQHKPGKAPKLLIHTASSLQSGVPSRFSGSVSGTDFTLTISSLQPEDFATYYCQQSYTTPYTFGQGTKLQIK | – | binding result [4]: no binding; binding result [5]: binds |
| Fab clone LD1/2-6-33 (Fab, V domains shown) VH: QVKLLESGGGVVQPGGSLRVACVASGFTFRNFGMHWVRQAPGKGLEWVAFIWFDASNKGYGDSVKGRFTVSRDNSKNTLYLQMNGLRAEDTAVYYCAREKAVRGISRYNYYMDVWGKGTTVTVSS VL: VMTQSPSFLSASVGDRVTITCRASQSIIRYLNWYQHKPGKAPKLLIHAASSLQSGVPSRFSGSVSGTDFTLTISSLQPEDFATYYCQQSYTTPYTFGQGTKLQIK | – | binding result [4]: no binding; binding result [5]: binds |
| Fab clone LD2-4 (Fab, V domains shown, human soluble Fab from pComb3 in E. coli) VH: QVKLLESGGGVVQPGGSLRLSCEASGFTLRSSGMHWVRQAPGKGLEWVALIWFDGSIRSYAESVKGRFTISRDTSKNTLYLQMRSLSADDTAVYYCARDKAVRGISRYNYYMDVWGKGTTVTVSS VL: VMTQSPSSLSASVGDRVTITCRTSQTISRNLNWYQQKPGKAPKLLIYATSSLQSGVPSRFSGSGSGTDFTLTINSLQPEDFATYYCQQSYTTPSFGQGTKVEIK | binds | – |
| Fab clone LD2-5 (Fab, V domains shown, human soluble Fab from pComb3 in E. coli) VH: QVKLLESGGGLVQPGGSLRLSCVASGFTFRSYGMHWVRQAPGKGLEWVAFIWFDGSNKGYVDSVKGRFTISRDNSKNMLYLQMNSLRAEDTAVYYCAREKALRGISRYNYYLDVWGKGATVTVSS VL: VMTQSPSSLSASIGDRVTITCRASQSVTRSLNWYQQKPGKAPRLLIFAASTLQSGVPSRFSGSGSGTDFTLTISSLQPEDFGTYYCQQNYRTPQWTFGQGTKVEIK | binds | – |
